Experimental data as given in a protein production outcome set (Wang et al. 2014).

Experiment: label from the status in PepcDB records
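Further: failed if final PepcDB status was selected cloned or expressed and not failed if soluble or beyond.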

MKKEKKDYYEILGVPRDATQEEIKRAYKRLVKEWHPDRHPENRKEAEQRFKEIQEAYEVLSDPQKRAMYDRFGYVGEQPTYQETESGGFFDDIFRDFENIFNRDIFDVFFGERPHQEERREYARRGEDIRYEIEVTLSDLINGAEIPVEYERYETCPRCGGTGVEPNAGYMDCPSCGGTGRIREERRSFFGYFVSERTCERCGGTGKIPREYCHECGGSGRVLRKVRRTVKIPPNVEDGTHLRITGGGNAGYYGGPYGDLIIIVRVKPDPRFKKSGSDLVYDVTIDYLQAILGTTVEVPLPEGGTTMLKIPPGTQPETVFRLKGKGLPNRYGRRGDLIVNVHVEIPKSLSREERKVLEELAKKRGVTIG
protein production: failed

MKKFKFTLFSLLVIIFSGLLIQRFSGYFYTTPVGIVKSVKIIDSEQLLTVKLVNNTKKTVVVKVKFNGNESTNPVFNKNNQILLDNSTKKWEFISLKRDGYTFILVVSFVSLVLGIAGKKGFFSLVGILFNIIFLFFLLWINQRNRSINLLLLISIYTIIAIIISTGTLYGLKKIDLRKVLATIFSVFLSYFITTITMKLLNDQGLRYEEMQFLTRPYRTVFLASLMLGGIGAALDNVVVIISSLDQLVRHTPEINTKELIESGKNIASDTTTSMINVLLFAYLSSATPFFIFYLANGWDFVETFKMHLSLEIMRILCGGLAILFTIPSSFLFFLLFKKIKKEGENR
protein production: failed

MKKFPELRKYTNPVWVRLVILCQKKLKVCFIMFIVMSISTSAEIYYEEAEEFLSKGDLVQACEKYYKAAEEAIKLLVIENNLKEIINEAEEHGWDSKTLNDAVTELSYKLGDNIIDMWASAVTLFTARKFMDKDLIENYKKDIKTLIEEAKQRFSIKVLKLEHHHHHH
protein production: failed

MKKFSAIFGLLSVIFVIMAISQVSGLSGAITPPKIDIMVNASNGLPQDINSIIYVKNPNSFPVKVEMVTTGDLNNSKKVEVKIMKNNFTLKPGETVGVNITFTVKEKDNYEGDILTKISPVDYGDDKKGVNLKASVVLPTKVAIMVVGNEIHTKELVITAVLIISILGLGAMLIRRHL
protein production: failed

MKKGLTFSITSAALFFGMNHVASADQIHTVKEDAKLTDIAQTFATTTTEIQNLNHLQNRDYVQVGETIVLPDSDIVEVKDGDTIKAIAERHQMTMNQLYQLNPNLGEVIYPGQLVAVSEKGSAHLNNQLQQIFNSHEAVQPTAQINDDERNKAENNTIRNVRTSGNITPSATQTWQNNDYSASDRQQVSNTTANEQVTSNYQYSPVSHASNGSNYYDWGQCTYYAFDRRQQLGKSVGNLWGNANNWASAAQQSGYQVNNTPEVGAIFQSTAGNYGHVGVVESKNADGSIVVSEMNWQGVGQKSYRTIHNTGQYNYIHLEHHHHHH
protein production: failed

MKKGYMYIALTTIIFSTMEIALKLVSKSFNPIQLNFTRFFIGGLFLVPFALNTLHKRHLSISTKDLRFFALLGLLGTVISMSLYQLAVQNTKASVVAVLFSCNPVFVTILAFFLLREAIHKNNIAALILEVIGTIVIIDPLNTKLSILGLALTIASTLIFAAYGVFGKKKCAKYGGIVVTCFGFLFGSIEMLVLIGITHITPIANLFSSNGIAIFSNIPLFTGYSLKNLPLMCFICLINTGAGFACYFKAMEETSAQTTSLVFFFKPILAPILALILLHEIIPVNMIIGILFILAGSISSILPELLAQRQTKLEKTA
protein production: failed

MKKIATATIATAGIATFAFAHHDAQAAEQNNDGYNPNDPYSYSYTYTIDAEGNYHYTWKGNWSPDRVNTSYNYNNYNNYNYYGYNNYSNYNNYSNYNNYNNYQSNNTQSQRTTQPTGGLGASYSTSSSNVHVTTTSAPSSNGVSLSNARSASGNLYTSGQCTYYVFDRVGGKIGSTWGNANNWANAAARSGYTVNNSPAKGAILQTSQGAYGHVAYVEGVNSNGSIRVSEMNYGHGAGVVTSRTISASQAASYNYIHLEHHHHHH
protein production: failed

MKKIFVIITTLLAVAIIIGSIITVVFSQRQAQTFKIQQQQFVKKPIPTLFLHGFGGSANSEKFMVKQAEKRGVTKDIITAYVSKDGAVTFKGKLRKDAVNPIVKIELENNRQGYLDKNAAWFKNVLTKLQSEYNFDKFNFVGHSMGNLTFAQYMMTYGNDKSLPQLNKQVNIAGTFNGVLNMNEDVNEITVDKDGKPSRMNQPYQQLRVLKDIYKGKGIEVLNIYGDLKDGTHSDGRVSNSSSKSLKYLLGNSPKSYRESKYEGEPAQHSQLHENENVANELIDFLWKK
protein production: failed

MKKIGILTSGGDCGGLNAVIKGAALMALNKGLELYVIPNGYAGLYNLLNQDRLVRLDEARLDQFQASFAGSEAGHSRVKIKAISNPDKYNRIKVGMKKFDLDALIISGGDDSGSVMIDLNHNGIQCIHCPKTMDLDLQTYSVGGDSTINRIAQFVEDLKTTGRTHNRVLVTEVFGRYAGHTAFRSGVAAEADCILIPEIPVDWDVVYEHIVERFTRRIRQSDVHSGTYTIVVAEGMKNADGTDIVDESAGIDAFGHKKLAGAGKYVCQEIKKRFKTDPRMPQFMKDTGMFVEGIYEIPEVREVHPGHLVRAGHSSAYDINFGFEAGAAAVLLLLEGKTGVTISKVKGRKIEYIEASKAIEQRYVDLDQVAMYESIGTCFGRTPAAYEPILREVDGVYERIY
protein production: failed

MKKIHLNKWKHKTSLYLMLFCLSLPLALTPLSVSATEKETESEQTAPTSQKDASETTSETQTVESSTNDQNQNNSTISLPESSSTTSLAPSESLTSDSKKLAQKEEVVASTTVAEPKAAASSTISVPDPNLKQTILSTLGLATTAELTQTDMDKLTNLTLNSVDIYSLVGLEHATNLSSIYINVNNKITDFTPLESLTKLTFVTLQTSSLTSDNFPNLTASQGLTNLSIGGTSVDNSVLAKIVNLKALVRLYMDSNMNITNIEPLKVLPNLKSLSVQFCGITDFTVIKDFPIMSDLAAFGQNTGRNDPPTTVTRSSLKYNEDEQSVYIPFSMMPNRMTNFDGYIPPFSTSNSASNTYFDFNGTQLPASRLQIDDNGITINSVSPEEYQGIKSFEYNARLNNPAGTYAVPDGYTFYAISSGTYLHQFDVVDDGAPVTVKYQDENGQELAPSELLNGYVGATYNSKELSFQGYSLIKVDGDATGKFTDSPQTVTYIYQKNAKLLGQVTVKYIDTDGKALFGDVIQTGNIGETYHTEKKELTGYTFKNIIGNASGQYTNSPQTVTYVYEKNANPNKPEEVIPDSSDKNNVNPDSRENETTKGSKTVKDKESVVTSKEKNLPETGDKEQGMKKITLFGSFLLILGSLVLFIRFRKVD
protein production: failed

MKKIIGLLFIVSCCILLSPTIKVQADTVPLPAPIIEAFPVEAIAEAIAEELDKDSVNDIITQEDLDTITILPFPGLNLTGEDLNVLNNEVFTNATELAIWSNNIGEMPDLSESLPALETIKASDANITQFPNANYPNLTTVDFSKNNFGINIPEFIGMEKLVSINMEQAELSGYIAKDIWMNMPNLETLLLRDNHLISIPEDIFLTGQIRNRSFDGQTATYPPRTIKQGENLDVFVPFIYQALDFIAPAPGNEMIINDNGEFLYKPVYPSYTGSYMYTIETAGLEPGEHLLEISLNYNGSEYLGWYDFPVTITE
protein production: failed

MKKILGTLLAVLFSFMAINDSAAQNTVLRFNKDGKFKIVQFTDVHFKYGNPASDVALERIGEVLDAEHPDLVIFTGDVVYSSPADKGMLQVLGQVERRHLPFVVTFGNHDNEQGKTRAELYDLIRGVAGNLLPDRGASPSPDYILTMKSSADASKDAALLYCMDSHSYSSLKDVDGYAWLTFGQVSWYRAQSAAYTARNGGKPYPALAFFHIPLPEYNEAAANENAILRGTRMEKACAPQLNTGMFAAMKEAGDVMGVFVGHDHDNDYAVMWKNILLAYGRFTGGNTEYNHLPNGARVIVLNEGTRTFETWIRQKGGVVDSTSYPSDYVKDDWRKR
protein production: failed

MKKISILFIFSLILGLFVSEVSAAGPRLKKRPKHVVLVAFDGLSAVAIRNHPMPNFNRLMKEGASTLNNRSILPSSSAPNWASMFTGVGPELHGYTTWGSKTPEIPPFITNQYGRFPGLYGLLRDTHPKAELGYIYEWDGMKYLVDSLAINHFVHAPQTKDHPKGATQFAVNYLKEKKPMYCAVIFEYPDHTGHTYKWESKEYYEKLDELDGYLGEIVAAIEEAGMMDETVIILTADHGGIGTNHGGKTLNEMETPLVFYGKGVKKNYKITESTMVIDVPATEAWLLGVEPHEAWLGNPVTTAFFTK
protein production: failed

MKKKAALATLAMLPLGVVNAHADGDIGIVTINYLNVRNEPTAESSIAFVAKKDDKVLIKDSSNGWYKIKAESGQEGWASSKYIAKSNSDSLRTSTNKEKQVISNSLNMRNGAGTSYRVITVLKKGQKVEVISESNGWSKIKYDGRLGYVSSSYLGDVSNSTNKSKTKQVNTTSLNVRSGPNTSYGLLGKLPKGSKVEVISESNGWSKIKYNGKDAYVSSMYLSDVSQSNSDNSSQSNDKKNTDKVVNTASLNVRSGPGSTYSKLGKVYKGSKVTVLSESSGWAKINFNNKEAFVVGNYLSTSADTSNNNSNSNYDNSSNSNGNNSSSSGQVNGMSGISGAKIDYKSLSYTLESHISKQVEKAASGGNVIAPSNRKSTPSPEFSTFSAQRTSSFVNASSSDIEYYLNPKNFTNTTKGMMQFLKINSYRDGISESSLNSYLNGLSSSVFKNQGAAFINAAKKYNIDVVYLVSHAMWETAYGKSTLAQGQTLTSYKGQPLSKPVKVYNFFGIGAIDKSANVSGAEAAYSNGWTSVETTIDGSAKWISQNYVNSSKYNQNTIYKMKWNYDYTWHQYATDVNWANGISGIMENLIGLYRGGSSLVFEVPQYK
protein production: failed

MKKKLDRREAVRSEKKTLPWRKKRSSRGCCWRRRVATAVGEEESRRLMEKTRRDGEEEEVTSDGGSWNGKKKLYRRRRRYLGEETDRLAAEAGEEELRRLLENKRRGREEEERRRRNQIEEEERRRRRK
protein production: failed

MKKKNILFFLLCFLLTSLSAQTLEQARGMYGRGQYAEAKPVFQKYVKSQPANGNYNLWYGVCCLKTGNAAEALKYLETAVKKRIPSGQLYLAQTYNDLYRFQDAVDCYEEYIADLSKRKKPTEEAEQLLEKAKGNLRMLKGVEDVCVIDSFVIDKANFLKAYKISEESGKLFTYNDYFKTKGYHPGTVYETEIGNRIYYSEQGEESLNILSKTKMLDEWSQGKPLPGSINASGNANYPYVLSDGVTIYYASDGDGSMGGYDIFVTRYNTNTDTYLVPENVGMPFNSPYNDYMYVIDEYNNLGWFASDRYQPEDKVCIYVFVPNDSKRTYNYEAMEPEKMIELAQLHSLESTWKDSKIVDDARQRLEAVINHKPAVEQNFDFEFIIDDHSTYHHLTDFKSPKAKQLYLKYEQMEKDYRQQTGKLKSQREGFARSNKDEQSKMAPAIRDLEKRVLQMSEELDKQAIEVRNAEKQNLK
protein production: failed

MKKKYFGTDGIRGKVGDFPITPDFFLRLGYAVGKVLLASDRQLAADKRPTVLIGKDTRISGYMLESALEAGFSAAGVDVLLSGPLPTPAVAYLVRALRIQAGAVISASHNPFDDNGIKFFSSAGSKLPDSMELQIEAELDQPMKTTPSIKLGRVQRLRDAAGRYIEFCKSTFPNQLDLRGLRIVVDCANGADYHIAGHVMHELGADVITTHASPDGFNINYECGATHIETLQGSILQHKADIGIAVDGDGDRVLMVSREGVLYDGDSLAYIIAKHRQQLGELQGGVAGTLMTNLAVEQAFERLGIPFARANVGDRYVSELLQQNDWYLGAENSGHIICRDKHTTGDGIISALQVLYALRDTGLTLADFMRDVPFFPQRLINVKVSGNFDFRSNPAVAACKNEAEQALGNDGRILLRASGTEPLIRVMVEGKVLQQTDYWAEKIAETIRQQAASSMTGS
protein production: failed

MKKLFTNTIFIQSNLERLSTILKSPQNLSKWVPDINSVSPKDDYFLISRSSSALNNFEKISVTSQDNSIIYTSTGGRLEYELHFDLTNKDDRTLVEQTLLVDETLTKLPLTLLAPIAKHAFHENLSSLERLIAISLEHHHHHH
protein production: failed
